Results reported in article PMC11350714 (JACS Au, 2024).

Molecular target: the molecule itself
Test: mass photometry

B1: MERS-CoV main protease (M^pro) (enzyme)
chain: SGLVKMSHPSGDVEACMVQVTCGSMTLNGLWLDNTVWCPRHVMCPADQLSDPNYDALLISMTNHSFSVQKHIGAPANLRVVGHAMQGTLLKLTVDVANPSTPAYTFTTVKPGAAFSVLACYNGRPTGTFTVVMRPNYTIKGSFLCGSCGSVGYTKEGSVINFCYMHQMELANGTHTGSAFDGTMYGAFMDKQVHQVQLTDKYCSVNVVAWLYAAILNGCAWFVKPNRTSVVSFNEWALANQFTEFVGTQSVDMLAVKTGVAIEQLLYAIQQLYTGFQGKQILGSTMLEDEFTPEDVNMQIMGVVMQ
- stoichiometry N: 2
